# Experimental data as given in the supplement of paper PMC10567573.
# B1: GFOD1 (parent)
# chain: SDDFCTFQMVLEGGVCCTVTLNFN
# Variants of: B1
# Assay: protein stability index of a GFP-peptide fusion (GPS, HEK-293T) (PSI 1-6); higher = more stable
# Settings: c terminus: a fixed tail appended
# 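Further: lentivirally expressed fusions sorted by FACS into six bins by GFP to DsRed ratio, PSI derived from sequencing read proportions per bin multiplied by bin number.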
row,Variant,protein stability index
1,SDDFCTFQMVLEGAVCCTVTLNFN,2.87
2,SDDFCTFQMVLEGKVCCTVTLNFN,2.74
3,SDDFCTFQMVLEGMVCCTVTLNFN,2.54
4,SDDFCTFQMVLEGYVCCTVTLNFN,1.83
5,SDDFCTFQMVLEGPVCCTVTLNFN,2.84
6,SDDFCTFQMVLEGNVCCTVTLNFN,1.78
7,SDDFCTFQMVLEGDVCCTVTLNFN,3.01
8,SDDFCTFQMVLEGRVCCTVTLNFN,1.6
9,SDDFCTFQMVLEGEVCCTVTLNFN,2.08
10,SDDFCTFQMVLEGCVCCTVTLNFN,2.19
11,SDDFCTFQMVLEGQVCCTVTLNFN,1.74
12,SDDFCTFQMVLEGGVCDTVTLNFN,1.8
13,SDDFCTFQMVLEGGVCTTVTLNFN,3.25
14,SDDFCTFQMVLEGGVCATVTLNFN,2.49
15,SDDFCTFQMVLEGGVCFTVTLNFN,3.18
16,SDDFCTFQMVLEGGVCVTVTLNFN,1.89
17,SDDFCTFQMVLEGGVCITVTLNFN,2.36
18,SDDFCTFQMVLEGGVCWTVTLNFN,2.79
19,SDDFCTFQMVLEGGVCQTVTLNFN,2.87
20,SDDFCTFQMVLEGGVCNTVTLNFN,2.77
21,SDDFCTFQMVLEGGVCPTVTLNFN,2.66
22,SDDFCTFQMVLEGGVCKTVTLNFN,2.52
23,SDDFCTFQMVLEGGVCETVTLNFN,1.21
24,SDDFCTFQMVLEGGVCHTVTLNFN,2.13

row,Variant,protein stability index
1,SDDFCTFQMVLEGGVCLTVTLNFN,3.21
2,SDDFCTFQMVLEGGVCCTVFLNFN,3.21
3,SDDFCTFQMVLEGGVCCTVLLNFN,1.03
4,SDDFCTFQMVLEGGVCCTVHLNFN,2.03
5,SDDFCTFQMVLEGGVCCTVCLNFN,1.75
6,SDDFCTFQMVLEGGVCCTVMLNFN,2.71
7,SDDFCTFQMVFEGGVCCTVTLNFN,3.38
8,SDDFCTFQMVIEGGVCCTVTLNFN,2.51
9,SDDFCTFQMVREGGVCCTVTLNFN,3.43
10,SDDFCTFQMVPEGGVCCTVTLNFN,3.4
11,SDDFCTFQMVDEGGVCCTVTLNFN,3.52
12,SDDFCTFQMVVEGGVCCTVTLNFN,3.22
13,SDDFCTFQMVKEGGVCCTVTLNFN,2.9
14,SDDFCTFQMVAEGGVCCTVTLNFN,1.26
15,SDDFCTFQMVYEGGVCCTVTLNFN,3.1
16,SDDFCTFQMVHEGGVCCTVTLNFN,3.05
17,SDDFCTGQMVLEGGVCCTVTLNFN,2.88
18,SDDFCTEQMVLEGGVCCTVTLNFN,2.03
19,SDDFCTPQMVLEGGVCCTVTLNFN,1.46
20,SDDFCTKQMVLEGGVCCTVTLNFN,1.93
21,SDDFCTYQMVLEGGVCCTVTLNFN,2.77
22,SDDFCTNQMVLEGGVCCTVTLNFN,1.63
23,SDDFCTWQMVLEGGVCCTVTLNFN,2.67
24,SDDFCTVQMVLEGGVCCTVTLNFN,1.98

row,Variant,protein stability index
1,SDDFCTTQMVLEGGVCCTVTLNFN,2.64
2,SDDFCTHQMVLEGGVCCTVTLNFN,2.26
3,SDDFCTFQMQLEGGVCCTVTLNFN,1.29
4,SDDFCTFQMTLEGGVCCTVTLNFN,2.36
5,SDDFCTFQMILEGGVCCTVTLNFN,1
6,SDDFCTFQMPLEGGVCCTVTLNFN,2.35
7,SDDFCTFQMALEGGVCCTVTLNFN,2.91
8,SDDFCTFQMHLEGGVCCTVTLNFN,2.2
9,SDDFCTFQMNLEGGVCCTVTLNFN,1.83
10,SDDFCTFQMSLEGGVCCTVTLNFN,2.04
11,SDDFCTFQMMLEGGVCCTVTLNFN,1.84
12,SDDFCTFQMDLEGGVCCTVTLNFN,3.42
13,SDDFCTFQMCLEGGVCCTVTLNFN,3.77
14,SDDFCTFQMFLEGGVCCTVTLNFN,4.27
15,SDDFCTFQMLLEGGVCCTVTLNFN,2.58
16,SDDFCTFQMWLEGGVCCTVTLNFN,3.71
17,SDDFCTFQMKLEGGVCCTVTLNFN,2.56
18,SDDFCTFQMYLEGGVCCTVTLNFN,1.13
19,SDDFCTFQMVLEMGVCCTVTLNFN,2.94
20,SDDFCTFQMVLELGVCCTVTLNFN,4.34
21,SDDFCTFQMVLEKGVCCTVTLNFN,3.14
22,SDDFCTFQMVLEIGVCCTVTLNFN,2.35
23,SDDFCTFQMVLEEGVCCTVTLNFN,2.48
24,SDDFCTFQMVLERGVCCTVTLNFN,3.71

row,Variant,protein stability index
1,SDDFCTFQMVLEVGVCCTVTLNFN,2.5
2,SDDFCTFQMVLEPGVCCTVTLNFN,2.92
3,SDDFCTFQMVLEQGVCCTVTLNFN,3.22
4,SDDFCTFQMVLENGVCCTVTLNFN,2.32
5,SDDFCTFQMVLEFGVCCTVTLNFN,2.3
6,SDDFCTFQMVLEDGVCCTVTLNFN,3.2
7,SDDFCTFQMVLEAGVCCTVTLNFN,3.65
8,SDDFCTFKMVLEGGVCCTVTLNFN,3.33
9,SDDFCTFIMVLEGGVCCTVTLNFN,3.21
10,SDDFCTFVMVLEGGVCCTVTLNFN,3.25
11,SDDFCTFWMVLEGGVCCTVTLNFN,2.86
12,SDDFCTFCMVLEGGVCCTVTLNFN,2.98
13,SDDFCTFYMVLEGGVCCTVTLNFN,1.44
14,SDDFCTFEMVLEGGVCCTVTLNFN,2.71
15,SDDFCTFAMVLEGGVCCTVTLNFN,3.01
16,SDDFCTFLMVLEGGVCCTVTLNFN,3.02
17,SDDFCTFDMVLEGGVCCTVTLNFN,2.45
18,SDDFCTFGMVLEGGVCCTVTLNFN,1.72
19,SDDFCTFHMVLEGGVCCTVTLNFN,3.2
20,SDDFCTFMMVLEGGVCCTVTLNFN,3.81
21,SDDFCTFRMVLEGGVCCTVTLNFN,4.3
22,SDDFCTFNMVLEGGVCCTVTLNFN,2.13
